The source of these data is paper PMC2946590, “Replication Past the γ-Radiation-Induced Guanine-Thymine Cross-Link G[8,5-Me]T by Human and Yeast DNA Polymerase η” (Journal of Nucleic Acids, 2010).

Substrate in data set [1]: Nc1ncnc2c1ncn2[C@H]1C[C@H](O)[C@@H](COP(=O)(O)OP(=O)(O)OP(=O)(O)O)O1
Description: purified protein. The format is biochemical, Homo sapiens. As to conditions: undamaged 26-mer template, misincorporation opposite G, 6.4 nM enzyme, 50 nM template-primer, 25 mM Tris-HCl pH 7.5, 5 mM MgCl2, 5 mM DTT, 37 °C.

Substrate in data set [2]: Nc1ncnc2c1ncn2[C@H]1C[C@H](O)[C@@H](COP(=O)(O)OP(=O)(O)OP(=O)(O)O)O1
Nature of the data set: purified protein. Conditions: undamaged 26-mer template, misincorporation opposite G, 6.4 nM enzyme, 50 nM template-primer, 25 mM Tris-HCl pH 7.5, 5 mM MgCl2, 5 mM DTT, 37 °C. The format is biochemical, Saccharomyces cerevisiae.

B1: human DNA polymerase η (hPol η) (Homo sapiens) (protein)
chain: MATGQDRVVALVDMDCFFVQVEQRQNPHLRNKPCAVVQYKSWKGGGIIAVSYEARAFGVTRSMWADDAKKLCPDLLLAQVRESRGKANLTKYREASVEVMEIMSRFAVIERASIDEAYVDLTSAVQERLQKLQGQPISADLLPSTYIEGLPQGPTTAEETVQKEGMRKQGLFQWLDSLQIDNLTSPDLQLTVGAVIVEEMRAAIERETGFQCSAGISHNKVLAKLACGLNKPNRQTLVSHGSVPQLFSQMPIRKIRSLGGKLGASVIEILGIEYMGELTQFTESQLQSHFGEKNGSWLYAMCRGIEHDPVKPRQLPKTIGCSKNFPGKTALATREQVQWWLLQLAQELEERLTKDRNDNDRVATQLVVSIRVQGDKRLSSLRRCCALTRYDAHKMSHDAFTVIKNCNTSGIQTEWSPPLTMLFLCATKFSASAPSSSTDITSFLSSDPSSLPKVPVTSSEAKTQGSGPAVTATKKATTSLESFFQKAAERQKVKEASLSSLTAPTQAPMSNSPSKPSLPFQTSQSTGTEPFFKQKSLLLKQKQLNNSSVSSPQQNPWSNCKALPNSLPTEYPGCVPVCEGVSKLEESSKATPAEMDLAHNSQSMHASSASKSVLEVTQKATPNPSLLAAEDQVPCEKCGSLVPVWDMPEHMDYHFALELQKSFLQPHSSNPQVVSAVSHQGKRNPKSPLACTNKRPRPEGMQTLESFFKPLTH
notes: recombinant, purchased from Enzymax LLC (Lexington, KY)
Consider B1, for which, in “purified protein [1]”, the Km came out at 6.5 ± 0.03 µM, the kcat stood at 0.104 ± 0.00017 s⁻¹ and the catalytic efficiency (kcat/Km) came to 16000 M⁻¹ s⁻¹.

B2: yeast DNA polymerase η (yPol η) (Saccharomyces cerevisiae S288C) (protein)
chain: MSKFTWKELIQLGSPSKAYESSLACIAHIDMNAFFAQVEQMRCGLSKEDPVVCVQWNSIIAVSYAARKYGISRMDTIQEALKKCSNLIPIHTAVFKKGEDFWQYHDGCGSWVQDPAKQISVEDHKVSLEPYRRESRKALKIFKSACDLVERASIDEVFLDLGRICFNMLMFDNEYELTGDLKLKDALSNIREAFIGGNYDINSHLPLIPEKIKSLKFEGDVFNPEGRDLITDWDDVILALGSQVCKGIRDSIKDILGYTTSCGLSSTKNVCKLASNYKKPDAQTIVKNDCLLDFLDCGKFEITSFWTLGGVLGKELIDVLDLPHENSIKHIRETWPDNAGQLKEFLDAKVKQSDYDRSTSNIDPLKTADLAEKLFKLSRGRYGLPLSSRPVVKSMMSNKNLRGKSCNSIVDCISWLEVFCAELTSRIQDLEQEYNKIVIPRTVSISLKTKSYEVYRKSGPVAYKGINFQSHELLKVGIKFVTDLDIKGKNKSYYPLTKLSMTITNFDIIDLQKTVVDMFGNQVHTFKSSAGKEDEEKTTSSKADEKTPKLECCKYQVTFTDQKALQEHADYHLALKLSEGLNGAEESSKNLSFGEKRLLFSRKRPNSQHTATPQKKQVTSSKNILSFFTRKK
notes: as for B1
As for B2, in “purified protein [2]”, the Michaelis-Menten constant (Km) stood at 9.5 ± 0.002 µM, the catalytic constant (kcat) amounted to 0.0883 ± 0.0005 s⁻¹ and the kcat/Km was 9330 M⁻¹ s⁻¹.
